Each block holds one binder with its values, some of them ahead of it.
Assays:
[1] = target: T1, CD86 on cells (WIL2-S human B-lymphoblastoid cells; HuCD86-2A2 CHO cells expressing CD86) (human, UniProt P42081 24-329); assay: flow cytometry, supernatants of transfected HEK293 cells on HuCD86-2A2 cells
T1 construct: whole, on cells; also called cell surface CD86
T1 sequence (looked up): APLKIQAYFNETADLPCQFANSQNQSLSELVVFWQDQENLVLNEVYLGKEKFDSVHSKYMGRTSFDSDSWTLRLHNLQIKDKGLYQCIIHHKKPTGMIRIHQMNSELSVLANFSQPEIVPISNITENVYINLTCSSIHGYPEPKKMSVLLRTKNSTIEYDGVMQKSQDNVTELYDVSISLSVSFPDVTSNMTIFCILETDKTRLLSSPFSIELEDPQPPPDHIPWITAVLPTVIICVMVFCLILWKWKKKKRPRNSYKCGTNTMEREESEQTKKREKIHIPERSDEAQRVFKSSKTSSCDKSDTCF
Description: Briefly, WIL2-S or HuCD86-2A2 cells were incubated with test molecules containing a CD86 antagonist at concentrations ranging from saturation to background levels. […] After the incubation, cells were washed and a fluorophore (R-phycoerythrin) tagged F(Ab′)₂ antibody specific for the Fc portion of the xceptor molecule, IL10R-Ig fusion protein, or anti-IL10 antibody. The tagged cells were then passed through a flow cytometer and data was analyzed by plotting median fluorescence intensity of each sample.
In another experiment, different versions of humanized FUN1 SMIPs were tested for CD86 binding. Supernatants of HEK293 cells transiently transfected with the six different versions of humanized FUN1 SMIPs were examined for CD86 binding using HuCD86-2A2 cells.

[2] = target: T2, CD86-mIgG (Ancell, Inc) (UniProt P42081 24-247, limits assumed); assay: SPR (BIAcore T100), CD86-mIgG immobilized on CM5; bivalent analyte model, first site
T2 construct: Bought reagent
T2 sequence (looked up): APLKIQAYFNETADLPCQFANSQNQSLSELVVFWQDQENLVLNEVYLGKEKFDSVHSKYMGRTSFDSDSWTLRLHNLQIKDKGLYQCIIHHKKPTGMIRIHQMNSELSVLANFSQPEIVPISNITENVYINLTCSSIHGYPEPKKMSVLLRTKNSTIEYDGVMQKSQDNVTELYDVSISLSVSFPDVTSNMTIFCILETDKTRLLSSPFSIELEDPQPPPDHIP
Description: (§1) SPR measurements were performed on a BIAcore™ T100 SPR (Pharmacia Biotech AB, Uppsala) using HBS-EP+ (GE Healthcare) as a running buffer. […] CTLA4-containing constructs were injected for 150 seconds, at a flow rate of 10 μl/min, in a series of concentrations from 4 nM to 10 μM. Dissociation was monitored for 600 seconds, and the surface was either regenerated by injecting 50 mM sodium citrate, 500 mM sodium chloride, pH 5.0, for 60 seconds (wild type CTLA4) or 10 mM glycine, pH 1.7 (L104E A29Y CTLA4). […] Data were analyzed using BiaEvaluation for the T100 software (version 2.0.1, GE Healthcare).

[3] = target: T3, Murine CD86-mIgG (R&D Systems, Inc) (murine, UniProt P42082 24-244, limits assumed); assay: SPR (BIAcore T100), murine CD86-mIgG immobilized on CM5; steady-state equilibrium, multiple Rmax fit
T3 construct: also called muCD86
T3 sequence (looked up): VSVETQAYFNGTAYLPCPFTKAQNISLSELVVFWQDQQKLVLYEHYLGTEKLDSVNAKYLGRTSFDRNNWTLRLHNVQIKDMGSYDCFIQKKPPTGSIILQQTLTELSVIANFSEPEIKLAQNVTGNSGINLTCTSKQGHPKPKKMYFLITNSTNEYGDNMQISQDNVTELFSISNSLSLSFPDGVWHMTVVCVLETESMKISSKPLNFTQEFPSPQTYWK
Description: (§2) SPR measurements were performed on a BIAcore™ T100 SPR (Pharmacia Biotech AB, Uppsala) using HBS-EP+ (GE Healthcare) as a running buffer. Murine CD86-mIgG (25 μg/mL in 10 mM sodium acetate, pH 4.0, R&D Systems, Inc) was directly immobilized onto a CM5 chip using standard amine coupling chemistry (Biacore Amine Coupling Kit, GE Healthcare), with final immobilization levels of 150, 493, and 746 Ru. CTLA4-containing constructs were injected for 150 seconds, at a flow rate of 10 μl/min, in a series of concentrations from 4 nM to 8 μM. Dissociation was monitored for 600 seconds (CTLA4 constructs) or 1200 seconds (GL1 constructs), and the surface was regenerated by injecting 10 mM glycine, pH 1.7, for 60 seconds. […] Data were analyzed using BiaEvaluation for the T100 software (version 2.0.1, GE Healthcare).

[4] = target: T2, CD86-mIgG (Ancell, Inc); assay: SPR (BIAcore T100), CD86-mIgG immobilized on CM5; steady-state equilibrium fit
Description: as §1
SPR measurements were performed as listed above, with the following exceptions: HBS-P+ (GE Healthcare) was used as a running buffer; dissociation was monitored for 1200 seconds; and the surface was regenerated by injecting 10 mM glycine, pH 1.7, for 60 seconds.

[5] = target: T3, Murine CD86-mIgG (R&D Systems, Inc); assay: SPR (BIAcore T100), murine CD86-mIgG immobilized on CM5; bivalent analyte model, first site
Description: as §2

[6] = target: T4, CD80-mIg (Ancell Catalog #510-020) (UniProt P33681 35-242); assay: SPR (BIAcore T100), CD80-mIgG immobilized on CM5; bivalent analyte model, first site
T4 construct: Bought reagent; also called CD80-mIgG; sCD80
T4 sequence (looked up): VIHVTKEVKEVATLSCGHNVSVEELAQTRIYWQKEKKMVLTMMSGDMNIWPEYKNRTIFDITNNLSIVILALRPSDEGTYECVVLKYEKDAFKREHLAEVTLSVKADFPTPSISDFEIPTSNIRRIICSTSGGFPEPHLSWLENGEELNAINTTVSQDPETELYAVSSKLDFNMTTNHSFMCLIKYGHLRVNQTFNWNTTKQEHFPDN
Description: as §1, with “Surface plasmon resonance (SPR) measurements” for “SPR measurements”, “from 5” for “from 4”, “to 1” for “to 10”, “was” for “was either”, “pH 4.0,” for “pH 5.0,”, “60 seconds.” for “60 seconds (wild type CTLA4) or 10 mM glycine, pH 1.7 (L104E A29Y CTLA4).”

[7] = target: T3, Murine CD86-mIgG (R&D Systems, Inc); assay: SPR (BIAcore T100), murine CD86-mIgG immobilized on CM5; bivalent analyte model, second site
Description: as §2

[8] = target: T4, CD80-mIg (Ancell Catalog #510-020); assay: SPR (BIAcore T100), CD80-mIgG immobilized on CM5; steady-state equilibrium fit
Description: as §1, with “Surface plasmon resonance (SPR) measurements” for “SPR measurements”, “from 5” for “from 4”, “to 1” for “to 10”, “was” for “was either”, “pH 4.0,” for “pH 5.0,”, “60 seconds.” for “60 seconds (wild type CTLA4) or 10 mM glycine, pH 1.7 (L104E A29Y CTLA4).”

[9] = target: T4, CD80-mIg (Ancell Catalog #510-020); assay: SPR (BIAcore T100), CD80-mIgG immobilized on CM5; bivalent analyte model, second site
Description: as §1, with “Surface plasmon resonance (SPR) measurements” for “SPR measurements”, “from 5” for “from 4”, “to 1” for “to 10”, “was” for “was either”, “pH 4.0,” for “pH 5.0,”, “60 seconds.” for “60 seconds (wild type CTLA4) or 10 mM glycine, pH 1.7 (L104E A29Y CTLA4).”

[10] = target: T3, Murine CD86-mIgG (R&D Systems, Inc); assay: SPR (BIAcore T100), murine CD86-mIgG immobilized on CM5; steady-state equilibrium fit
Description: as §2

B1: FUN1-31 humanized FUN1 SMIP (Fc fusion)
chain: QVQLVESGGGLVKPGGSLRLSCAASGFTFSDYNMNWIRQAPGKGLEWVSNIDPYYGGTSYNQKFKGRFTISRDNAKNSLYLQMNSLRAEDTAVYYCARWDYRYDDGRAYYVMDFWGQGTTVTVSSGGGGSGGGGSGGGGSGGGGSDIVMTQSPDSLAVSLGERATINCKSSQSVLYSSNQKNYLAWYQQKPGQPPKLLIYWASTRESGVPDRFSGSGSGTDFTLTISSLQAEDVAVYYCHQYLYSWTFGQGTKLEIKRLEPKSSDKTHTCPPCPAPEAAGAPSVFLFPPKPKDTLMISRTPEVTCVVVDVSHEDPEVKFNWYVDGVEVHNAKTKPREEQYNSTYRVVSVLTVLHQDWLNGKAYACAVSNKALPAPIEKTISKAKGQPREPQVYTLPPSRDELTKNQVSLTCLVKGFYPSDIAVEWESNGQPENNYKTTPPVLDSDGSFFLYSKLTVDKSRWQQGNVFSCSVMHEALHNHYTQKSLSLSPG
binding result [1]: no binding

B2: CTLA4-Fc fusion containing the L104E A29Y mutations, analogous to belatacept (Fc fusion)
chain: MHVAQPAVVLASSRGIASFVCEYASPGKYTEVRVTVLRQADSQVTEVCAATYMMGNELTFLDDSICTGTSSGNQVNLTIQGLRAMDTGLYICKVELMYPPPYYEGIGNGTQIYVIDPEPCPDSDLEPKSSDKTHTCPPCPAPEAAGAPSVFLFPPKPKDTLMISRTPEVTCVVVDVSHEDPEVKFNWYVDGVEVHNAKTKPREEQYNSTYRVVSVLTVLHQDWLNGKAYACAVSNKALPAPIEKTISKAKGQPREPQVYTLPPSRDELTKNQVSLTCLVKGFYPSDIAVEWESNGQPENNYKTTPPVLDSDGSFFLYSKLTVDKSRWQQGNVFSCSVMHEALHNHYTQKSLSLSPG
notes: the mutations are in the entry
koff [2]: 0.0102 s⁻¹
kon [2]: 84700 M⁻¹ s⁻¹
Kd [3]: 920 nM
Kd [4]: 772 nM
koff [5]: 0.0787 s⁻¹
kon [5]: 27800 M⁻¹ s⁻¹
koff [6]: 0.00373 s⁻¹
kon [6]: 155000 M⁻¹ s⁻¹
Second Site ka [7]: 0.0728 s⁻¹
Second Site kd [7]: 0.168 s⁻¹
Kd [8]: 13.3 nM
Second Site ka [9]: 0.00102 s⁻¹
Second Site kd [9]: 0.00332 s⁻¹

B4: IL10::GL1 xceptor (Fc fusion)
chain: SPGQGTQSENSCTHFPGNLPNMLRDLRDAFSRVKTFFQMKDQLDNLLLKESLLEDFKGYLGCQALSEMIQFYLEEVMPQAENQDPDIKAHVNSLGENLKTLRLRLRRCHRFLPCENKSKAVEQVKNAFNKLQEKGIYKAMSEFDIFINYIEAYITMKIRNLEPKSSDKTHTCPPCPAPEAAGAPSVFLFPPKPKDTLMISRTPEVTCVVVDVSHEDPEVKFNWYVDGVEVHNAKTKPREEQYNSTYRVVSVLTVLHQDWLNGKAYACAVSNKALPAPIEKTISKAKGQPREPQVYTLPPSRDELTKNQVSLTCLVKGFYPSDIAVEWESNGQPENNYKTTPPVLDSDGSFFLYSKLTVDKSRWQQGNVFSCSVMHEALHNHYTQKSLSLSPGNSLFNQEVQIPLTESYSPNSEVQLVESAGGLVQPGRSLKLSCAASGFTFSDYYMAWVRQAPTKGLEWVATISHDGSSTYYRDSVKGRFTISRDNAKTILYLQMDSLRSEDTATYFCARQNIMDYWGQGVMVTVSSGGGGSGGGGSGGGGSGGGGSDIVMTQTPSSQAVSAGEKVTMSCKSSQSLLYSRDQSNYLAWYQQKPGQSPKLLIYLASTRESGVPDRFIGSGSGTDFTLTISSVQAEDLADYYCQQHYNYPLTFGSGTKLEIK
Kd [10]: 95.1 nM
koff [5]: 4.4e-05 s⁻¹
kon [5]: 67300 M⁻¹ s⁻¹
Second Site ka [7]: 0.0271 s⁻¹
Second Site kd [7]: 0.088 s⁻¹

More lines, now with the values ahead:

binding result [1]: no binding
B3: FUN1-12 humanized FUN1 SMIP (Fc fusion)
chain: EVQLVQSGAEVKKPGATVKISCKVSGYTFTDYNMNWVQQAPGKGLEWMGNIDPYYGGTSYNQKFKGRVTITADTSTDTAYMELSSLRSEDTAVYYCATWDYRYDDGRAYYVMDFWGQGTTVTVSSGGGGSGGGGSGGGGSGGGGSDIQMTQSPSSLSASVGDRVTITCKSSQSVLYSSNQKNYLAWYQQKPGKVPKLLIYWASTRESGVPSRFSGSGSGTDFTLTISSLQPEDVATYYCHQYLYSWTFGQGTKLEIKRLEPKSSDKTHTCPPCPAPEAAGAPSVFLFPPKPKDTLMISRTPEVTCVVVDVSHEDPEVKFNWYVDGVEVHNAKTKPREEQYNSTYRVVSVLTVLHQDWLNGKAYACAVSNKALPAPIEKTISKAKGQPREPQVYTLPPSRDELTKNQVSLTCLVKGFYPSDIAVEWESNGQPENNYKTTPPVLDSDGSFFLYSKLTVDKSRWQQGNVFSCSVMHEALHNHYTQKSLSLSPG

binding result [1]: no binding
B5: FUN1-32 humanized FUN1 SMIP (Fc fusion)
chain: QVQLVESGGGLVKPGGSLRLSCAASGFTFSDYNMNWIRQAPGKGLEWVSNIDPYYGGTSYNQKFKGRFTISRDNAKNSLYLQMNSLRAEDTAVYYCARWDYRYDDGRAYYVMDFWGQGTTVTVSSGGGGSGGGGSGGGGSGGGGSDIQMTQSPSSLSASVGDRVTITCKSSQSVLYSSNQKNYLAWYQQKPGKVPKLLIYWASTRESGVPSRFSGSGSGTDFTLTISSLQPEDVATYYCHQYLYSWTFGQGTKLEIKRLEPKSSDKTHTCPPCPAPEAAGAPSVFLFPPKPKDTLMISRTPEVTCVVVDVSHEDPEVKFNWYVDGVEVHNAKTKPREEQYNSTYRVVSVLTVLHQDWLNGKAYACAVSNKALPAPIEKTISKAKGQPREPQVYTLPPSRDELTKNQVSLTCLVKGFYPSDIAVEWESNGQPENNYKTTPPVLDSDGSFFLYSKLTVDKSRWQQGNVFSCSVMHEALHNHYTQKSLSLSPG
notes: SMIP: scFv-hinge-Fc single chain

From patent publication US20120100139A1 (APTEVO RESEARCH AND DEVELOPMENT, published 2012)
